Measurements reported in patent publication US8580267B2, “Immunocytokines for tumour therapy with chemotherapeutic agents” (Philogen S.p.A., priority 2008, dated 2013).
Where a chain is given by its changes, count along the chain named.

Columns and labels:
[1] = body weight of mice in the subcutaneous glioblastoma therapy study; assay type: in vivo, BALB/c nude mice
Experimental: (§2) One group was injected i.v. (lateral tail vein) with 20 μg of F16-IL2 (corresponding to 6.6 μg of IL2) in a total volume of 100 μl PBS solution (Phosphate Buffer Saline), one was injected i.p. with 0.525 mg of temozolomide (corresponding to 75 mg/m^2) in a total volume of 150 μl saline 10% DMSO solution, a third group received both the i.v. injection of 20 μg F16-IL2 and the i.p. of 0.525 mg temozolomide, finally, the control group was injected i.p. with 150 μl of saline 10% DMSO.
(§3) A schedule of five total administrations was established: on days 12, 15, 18, 21, 24 from the tumour cell injection into mice (day 0).
(§4) Mice were monitored daily and tumours were measured with a digital caliper three times per week. Tumour volume was estimated using the formula: volume=length×width^2/2. Animals were sacrificed when tumours approached a volume of 3,000 mm^3 or when tumours turned necrotic and bleeding, according to the Swiss regulations and under a project license granted by the Veterinäramt des Kantons Zürich (198/2005).

[2] = system: subcutaneous U87 glioblastoma; experiment: therapy study in subcutaneous glioma mouse model; conditions: for effect on tumour growth: five administrations days 12-24, F16-IL2 20 μg i.v., temozolomide 0.525 mg i.p., temozolomide result by day 30
Experimental: Subcutaneous glioblastoma bearing mice were obtained by a s.c. flank injection of 5×10^6 U87 cells in 8-week old female BALB/c nude mice [66]. Twelve days after tumour cell implantation, when tumours had reached a size of 250-300 mm^3, mice were staged to maximize uniformity among the groups (n=5).
as §2, §3, §4
Tumour volumes are shown as average ±SD or SE. Kaplan-Meier survival curves were performed to display therapeutic efficacy in the subcutaneous glioma model.

TNC-A1 = target: T1, TNC-A1 (Homo sapiens, UniProt P24821); experiment: immunoreactivity after radiolabelling on TNC-A1-Sepharose resin; assay type: binding; conditions: radiolabelled F16-IL2 on TNC-A1-Sepharose resin
T1 construct: loading a sample of radiolabelled F16-IL2 onto TNC-A1-Sepharose resin
T1 sequence (P24821 1076-1165 limits assumed): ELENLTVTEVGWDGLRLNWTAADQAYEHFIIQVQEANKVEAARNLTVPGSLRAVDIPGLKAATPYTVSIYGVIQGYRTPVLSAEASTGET
Experimental: (§1) The in vivo targeting performance of F16-IL2 was evaluated by quantitative biodistribution analysis. […] Antibody immunoreactivity after labelling was evaluated by loading a sample of radiolabelled F16-IL2 onto TNC-A1-Sepharose resin, followed by radioactive counting of the flow-through and of the eluate fractions. Immunoreactivity, defined as the ratio between the counts of the eluted protein and the sum of the counts of the eluted and flow-through fractions, was 84%. Mice were sacrificed 24 hours after injection of F16-IL2 (10 μg, 3.6 μCi per mouse). Organs were weighed and radioactivity was counted with a Packard Cobra gamma counter. Radioactivity content of representative organs was expressed as the percentage of the injected dose per gram of tissue (% ID/g).

s.c. U87 tumours = experiment: immunofluorescence assessment of tumour-infiltrating cells and microvascular density in subcutaneous glioma xenografts; assay type: in vivo, Balb/c nude mice; conditions: anti-human IL2 staining, after three injections
Experimental: To evaluate the role of inflammatory cell responses in vivo, female Balb/c nude mice bearing s.c. U87 tumours (3 mice per group) were treated on days 12, 15 and 18 after tumour cell implantation with either saline 10% DMSO (i.p.), F16-IL2 (i.v.), temozolomide (i.p.), and F16-IL2 (i.v.) plus temozolomide (i.p.). Mice were sacrificed 24 hours after the third injection, and tumours were excised and snap-frozen in OCT. […]
Sections of 10 μm thickness were treated with ice-cold acetone, rehydrated in PBS and blocked with PBS 10% donkey serum+10% goat serum. […] Bound antibody was detected with fluorescent Alexa488- or Alexa594-coupled secondary antibodies (donkey anti-rat or goat anti-rabbit, BD Biosciences Pharmingen) and DAPI in a PBS 12% BSA solution.
In each tumour section, the staining given by the primary antibodies was quantified in three representative 10× microscopic images using the ImageJ software (http://rsb.info.nih.gov/ij/).

subcutaneous U87 tumours = experiment: quantitative biodistribution analysis in mice bearing subcutaneous U87 tumours; assay type: in vivo, BALB/c nude mice; conditions: radioiodinated F16-IL2 i.v., 24 h after injection
Experimental: as §1

[3] = target: T2, extra-domain A1 of tenascin C (Homo sapiens, UniProt P24821); experiment: real-time interaction analysis on a BIAcore 3000 instrument; assay type: binding; conditions: after affinity maturation
T2 construct: F16 is a human monoclonal antibody specific to the extra-domain A1 of tenascin C [25]
T2 sequence (P24821 1076-1165 limits assumed): T1 sequence (P24821 1076-1165 limits assumed)

A1 domain of tenascin-C = target: T3, A1 domain of tenascin-C (Homo sapiens, UniProt P24821); experiment: immunohistochemistry on human glioblastoma specimens and U87 xenografts with F16; conditions: biotinylated SIP format, 2 μg/ml; patterns and intensities comparable to L19
T3 construct: from tissue; host or cells: human glioblastoma surgical specimens; U87 glioblastoma xenografts grown s.c. in nude mice
Experimental: Freshly frozen human glioblastoma tissues were received from the Neurosurgery department of Basel University Hospital, Basel, Switzerland, and were stored at −80° C.
For immunohistochemical procedures, the F16 antibody was used in biotinylated small immunoprotein (SIP) format. F16 is a human monoclonal antibody specific to the extra-domain A1 of tenascin C [25]. […] The SIP antibody format consists of a covalent homodimer in which each monomeric unit comprises a scFv fused to a human CH4 domain of the secretory isoform S2 of human IgE (as exemplified for antibody L19 in ref. [65]). This domain promotes the formation of homodimers that are further stabilized by disulfide bonds between the C-terminal cysteine residues, resulting in a 75 kDa homobivalent miniantibody. This SIP antibody was further biotinylated in order to avoid background staining given by the human endogenous IgE.
Sections of 10 μm thickness were treated with ice-cold acetone, rehydrated in TBS (50 mM Tris, 100 mM NaCl, 0.001% Aprotinin, pH 7.4) and blocked with TBS 20% fetal calf serum. Biot-(SIP) F16 antibody was added onto the sections in a final concentration of 2 μg/ml. Bound antibody was detected with streptavidin-alkaline phosphatase complex (Biospa). Fast Red (Tablets Set, Sigma) was used as phosphatase substrate and sections were counterstained with Gill's hematoxylin no. 2 (Sigma). […]

tenascin-C = tenascin-C (Homo sapiens, UniProt P24821); experiment: binding of F16 with Ala to Met mutation in VH CDR1; conditions: Ala to Met in position 4 of VH CDR1
Chain of tenascin-C (P24821 23-2201): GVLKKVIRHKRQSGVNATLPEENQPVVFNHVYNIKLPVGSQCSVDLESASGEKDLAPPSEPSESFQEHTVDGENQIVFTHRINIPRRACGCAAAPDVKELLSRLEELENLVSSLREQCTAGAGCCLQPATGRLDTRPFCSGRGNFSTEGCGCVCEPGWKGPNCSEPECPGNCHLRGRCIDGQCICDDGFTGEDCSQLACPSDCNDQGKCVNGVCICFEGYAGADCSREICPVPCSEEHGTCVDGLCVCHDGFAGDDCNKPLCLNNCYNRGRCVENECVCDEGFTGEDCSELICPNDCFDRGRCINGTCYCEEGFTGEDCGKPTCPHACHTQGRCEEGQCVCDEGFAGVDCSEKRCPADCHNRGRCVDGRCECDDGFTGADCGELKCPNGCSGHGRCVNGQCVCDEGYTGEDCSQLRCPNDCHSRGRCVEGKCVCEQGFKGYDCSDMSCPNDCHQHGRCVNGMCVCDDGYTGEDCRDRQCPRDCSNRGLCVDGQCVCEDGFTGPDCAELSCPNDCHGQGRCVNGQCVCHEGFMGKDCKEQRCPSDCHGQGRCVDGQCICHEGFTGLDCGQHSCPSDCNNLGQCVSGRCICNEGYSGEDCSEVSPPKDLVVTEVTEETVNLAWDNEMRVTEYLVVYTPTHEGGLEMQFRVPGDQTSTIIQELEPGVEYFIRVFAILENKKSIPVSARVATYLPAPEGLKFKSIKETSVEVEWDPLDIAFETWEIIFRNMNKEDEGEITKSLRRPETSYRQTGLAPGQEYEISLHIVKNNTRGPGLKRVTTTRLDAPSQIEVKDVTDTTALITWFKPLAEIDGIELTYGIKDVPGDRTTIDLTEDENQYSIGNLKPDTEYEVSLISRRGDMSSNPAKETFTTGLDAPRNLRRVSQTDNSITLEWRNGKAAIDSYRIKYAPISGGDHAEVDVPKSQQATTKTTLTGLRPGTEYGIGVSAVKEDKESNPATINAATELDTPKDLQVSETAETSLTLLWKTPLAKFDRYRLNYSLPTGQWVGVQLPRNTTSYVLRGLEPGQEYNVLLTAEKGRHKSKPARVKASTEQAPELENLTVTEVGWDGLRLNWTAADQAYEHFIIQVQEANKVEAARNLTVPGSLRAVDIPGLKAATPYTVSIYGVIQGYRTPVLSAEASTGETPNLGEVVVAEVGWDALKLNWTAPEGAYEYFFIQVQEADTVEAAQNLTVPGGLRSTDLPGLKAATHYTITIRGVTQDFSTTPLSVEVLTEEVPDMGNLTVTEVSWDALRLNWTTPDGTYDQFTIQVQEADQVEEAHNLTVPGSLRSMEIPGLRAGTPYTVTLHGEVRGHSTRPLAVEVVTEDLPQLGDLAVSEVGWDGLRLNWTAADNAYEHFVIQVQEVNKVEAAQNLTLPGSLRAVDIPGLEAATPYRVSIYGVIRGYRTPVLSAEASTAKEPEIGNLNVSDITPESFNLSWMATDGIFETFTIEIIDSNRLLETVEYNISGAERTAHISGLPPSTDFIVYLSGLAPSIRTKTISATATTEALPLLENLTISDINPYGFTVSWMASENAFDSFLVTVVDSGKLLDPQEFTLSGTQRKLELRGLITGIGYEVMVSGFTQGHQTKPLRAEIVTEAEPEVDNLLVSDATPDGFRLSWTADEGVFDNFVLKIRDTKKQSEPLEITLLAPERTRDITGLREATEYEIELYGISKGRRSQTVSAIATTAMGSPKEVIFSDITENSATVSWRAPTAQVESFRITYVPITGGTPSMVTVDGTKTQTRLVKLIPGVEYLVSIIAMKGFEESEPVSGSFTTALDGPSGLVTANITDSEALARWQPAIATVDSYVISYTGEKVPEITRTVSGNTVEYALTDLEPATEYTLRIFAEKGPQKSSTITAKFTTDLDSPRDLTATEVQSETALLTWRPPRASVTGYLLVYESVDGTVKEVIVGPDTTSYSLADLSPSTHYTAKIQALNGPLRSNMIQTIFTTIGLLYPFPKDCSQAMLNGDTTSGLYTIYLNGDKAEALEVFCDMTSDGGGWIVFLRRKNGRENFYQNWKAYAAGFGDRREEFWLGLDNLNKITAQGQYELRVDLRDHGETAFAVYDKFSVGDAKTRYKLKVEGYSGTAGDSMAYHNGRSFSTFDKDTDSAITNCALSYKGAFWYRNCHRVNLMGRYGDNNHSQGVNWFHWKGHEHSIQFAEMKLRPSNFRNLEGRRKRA

T3 sequence (P24821 23-2201): as above

Molecule: Cn1nnc2c(C(N)=O)ncn2c1=O [temozolomide, 8-carbamoyl-3-methylimidazo[5,1-d]-1,2,3,5-tetrazin-4(3H)-one]
- transient weight loss, nadir ([1]; after the fifth injection): 10%
- mice in which tumours started growing again ([2]; by day 45): 3/5
- effect on tumour growth [2]: virtually complete tumour regression
- mice surviving over 3 months from the tumour cell injection ([2]; n=5 per group, combination group alive and tumour-free): two mice
- day before which the other animals were sacrificed ([2]; tumour had reached the cut-off size): < 106 days

Molecule: F16-IL2: clinical-stage immunocytokine consisting of human IL-2 fused to the human antibody F16, specific to the A1 domain of tenascin-C
- weight loss ([1]; F16-IL2 20 μg i.v., five administrations): no weight loss
- sacrifice of the last mouse, day from tumour cell inoculation ([2]; Kaplan-Meier survival, cut-off tumour size 3,000 mm^3): 47 days
- effect on tumour growth [2]: minor tumour growth retardation
- immunoreactivity (eluted counts / eluted + flow-through counts) (TNC-A1): 84%
- localization of the immunocytokine within the tumour (s.c. U87 tumours): perivascular region and in the tumour extracellular matrix
- accumulation in the tumour (subcutaneous U87 tumours): 2.3 % ID/g
- tumour-to-blood ratio (subcutaneous U87 tumours): 11.5

B1: F16: human monoclonal antibody specific to the extra-domain A1 of tenascin C; used in biotinylated SIP format for immunohistochemistry (antibody, V domains shown)
VH: EVQLLESGGGLVQPGGSLRLSCAASGFTFSRYGASWVRQAPGKGLEWVSAISGSGGSTYYADSVKGRFTISRDNSKNTLYLQMNSLRAEDTAVYYCAKAHNAFDYWGQGTLVTVSR
VL: SSELTQDPAVSVALGQTVRITCQGDSLRSYYASWYQQKPGQAPVLVIYGKNNRPSGIPDRFSGSSSGNTASLTITGAQAEDEADYYCNSSVYTMPPVVFGGGTKLTVL
- dissociation constant [3]: low nanomolar range
- staining of tumour sections (A1 domain of tenascin-C): strongly stain both experimental U87 tumours and glioblastomas from patients

B2: improved variant of F16: 4A1-F16 having the Ala to Met mutation in VH CDR1, giving VH CDR1 SEQ ID NO: 18 (antibody, V domains shown)
VH: B1 VH with A34M
VL: B1 VL
- binding affinity to tenascin-C (tenascin-C): retaining high affinity binding to tenascin-C
